In patent US7179650:

Columns and labels:
[1] = biological target: P53 (yeast two-hybrid control); experiment: yeast two-hybrid β-galactosidase filter assay (control pair)
[2] = biological target: pGBT9-Fas (191-319AA): intracellular domain of Fas/APO-1 fused to the GAL4 DNA-binding domain (human); experiment: yeast two-hybrid β-galactosidase filter assay

Chain of P53 (yeast two-hybrid control) (P02340 72-390): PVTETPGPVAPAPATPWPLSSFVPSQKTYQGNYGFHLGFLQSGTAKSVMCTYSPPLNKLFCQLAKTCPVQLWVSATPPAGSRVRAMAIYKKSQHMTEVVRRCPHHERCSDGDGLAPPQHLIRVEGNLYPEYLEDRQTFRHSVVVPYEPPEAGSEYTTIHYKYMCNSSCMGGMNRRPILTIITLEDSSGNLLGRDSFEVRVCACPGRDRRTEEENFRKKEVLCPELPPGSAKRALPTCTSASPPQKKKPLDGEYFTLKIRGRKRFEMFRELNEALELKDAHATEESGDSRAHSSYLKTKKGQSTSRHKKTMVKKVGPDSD

Row | Substance | time for the colony to turn blue [1] | time for the colony to turn blue [2]
1 | SV40 T antigen (yeast two-hybrid control) (from UniProt P03070 84-708) | < 30 min | 
2 | Clone 68: in-frame fusion of the Gal4 activation domain to the death domain of FADD/MORT1 (from UniProt Q13158 80-208) |  | < 3 h
3 | Sentrin-1 (SEQ ID NO:2) fused to the Gal4 activation-domain (from UniProt A7WLH8 1-101) |  | < 3 h
